The source of these data is patent US20260217835A1.

The target of this assay is GCH065-G1T6v2/L0011-kT0. In words: CIEX peak area ratio; coexpression from mRNAs (heavy 1/light/heavy 2 = 1/4/1) in Expi293 cells.
Sequence of GCH065-G1T6v2/L0011-kT0 (heavy, as listed by the source): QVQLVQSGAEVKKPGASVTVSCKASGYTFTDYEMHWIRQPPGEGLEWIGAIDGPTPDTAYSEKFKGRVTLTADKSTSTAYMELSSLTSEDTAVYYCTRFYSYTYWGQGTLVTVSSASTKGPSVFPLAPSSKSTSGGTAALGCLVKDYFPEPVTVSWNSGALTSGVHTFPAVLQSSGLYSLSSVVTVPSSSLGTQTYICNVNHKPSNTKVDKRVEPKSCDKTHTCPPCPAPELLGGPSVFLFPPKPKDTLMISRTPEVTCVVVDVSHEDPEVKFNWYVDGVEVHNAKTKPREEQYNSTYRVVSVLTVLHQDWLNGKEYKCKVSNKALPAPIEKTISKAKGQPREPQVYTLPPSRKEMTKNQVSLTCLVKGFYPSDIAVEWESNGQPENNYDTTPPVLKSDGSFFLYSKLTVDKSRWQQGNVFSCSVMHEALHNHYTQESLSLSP

B1: TR01H113-G1T6/L0011-kT0 (antibody, human IgG1, kappa, V domains shown)
VH: QVQLVESGGGVVQPGGSLRLSCAASGFTFSNAWMHWVRQAPGKGLEWVAQIKDKSQNYATYVAESVKGRFTISRADSKNSIYLQMNSLKTEDTAVYYCRYVHYAAGYGVDIWGQGTTVTVSS
VL: DIVMTQSPLSLPVTPGEPASISCRSSQPLVHSNRNTYLHWYQQKPGQAPRLLIYKVSNRFSGVPDRFSGSGSGTDFTLKISRVEAEDVGVYYCGQGTQVPYTFGQGTKLEIKR
For B1, the Heavy chain heteromultimer (TG, T1G2, QJ, Q3J4) (%) came to 2.07%.
